Test results reported in the supplement of paper PMC11780869.

Test system: Bacillus subtilis
Experiment: cleaved RNA product abundance (RNA/gDNA barcode ratio) relative to median wild-type variant (ratio to wild type); higher = more accumulation of the downstream cleavage product
Summary of the method: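 Oligos with a 9% error rate were used to build barcoded, mutagenized RNase Y cleavage-site windows within truncated aprE or tetM reporter mRNAs, which were integrated into the B. subtilis chromosome. Cultures were grown in LB at 37°C between OD600 0.0003 and 0.3. Cleaved RNA was gel-selected, reverse transcribed and barcode-sequenced, as were genomic DNA barcodes, and UMIs were collapsed. Cleaved product abundance is the scaled RNA:gDNA barcode ratio, with the median construct carrying the unmutated site as reference.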

[1] = experiment (reporter, strain, medium): exp 4a: truncated aprE reporter, strain BJT201 with 2% xylose (RNase J1 expressed), cleavage site: cggR-gapA (positions -7 to +36 mutated)
[2] = experiment (reporter, strain, medium): exp 8a: truncated aprE reporter, strain BJT201 with 2% xylose (RNase J1 expressed), cleavage site: glnRA (positions -5 to +31 mutated)
[3] = experiment (reporter, strain, medium): exp 2b: truncated aprE reporter, strain BJT200, cleavage site: cggR-gapA (positions -7 to +36 mutated)
[4] = experiment (reporter, strain, medium): exp 6: tetM reporter, strain 168, cleavage site: cggR-gapA (positions -7 to +36 mutated)

| Sequence | cleaved RNA product abundance [1] | cleaved RNA product abundance [2] | cleaved RNA product abundance [3] | also measured |
| --- | --- | --- | --- | --- |
| ACAGACGAAGGAGCCGCAAAGAAGTTATTAAGGAATGAATAATCCCTCAATATAAGTATCTCTCACTTATTTAAA | 0.0312 | – | – | – |
| CGACATGTCCCGCTTCTTTCATTATTCCGTTAGCAACTGTTTTGCAATATACATTTACCTTTTAAGAGGAGGAAT | – | 0.626 | – | – |
| CGACATGTCCCGCTTCTTTCATTAATTCGTTAGCAACTGTTTTGCTATATACATTTACCGTTTAAGAGGAGGAAT | – | 0.591 | – | – |
| CGACATGTCCCGCTTCTTTCATTAATCCATTAGCAATTGTTTTGCTATATACATTTACCTTTTAAGAGGAGGAAT | – | 0.776 | – | – |
| ACAGACGAAGGAGCCGCAAAGAAGTTATTAAGGGATGAATAATCCTTCAATATAATTATCTCTCACTTATTTAAA | 0.387 | – | 0.219 | – |
| CGACATGTCCCGCTTCTTTCATTAATCCGTTAGCAACTGTTTTTCTATATACATTTACATTTTAAGAGGAGGAAT | – | 0.576 | – | – |
| CGACATGTCCCGCTTCTTTCATTATTCCGTTAGCAACTGTTTTGCTATATACATTTATCTTTTAAGAGGAGGAAT | – | 1.8 | – | – |
| ACAGACGAAGGAGCCGCATAGAAGTTATTAAGGGATGAATAAGCCCTCAATATAAATATCTCTCACTTATTTAAA | 0.32 | – | – | – |
| ACAGACGAAGGAGCCGCAAAGAAGTTATTAAGGGATGAATAATCGCTCAATATTAATATCTCTCACTTATTTAAA | – | – | 0.0992 | – |
| CGACATGTCCCGCTTCTTTCATTAATTCGTTAGCAAATGTTTTGCTATATACATTTACCTTTTAAGAGGAGGAAT | – | 0.87 | – | – |
| ACAGACGAAGGAGCCGCAAAGAAGTTATTAAGGGATGAATAATCCCTTAATAAAAATATCTCTCACTTATTTAAA | – | – | – | cleaved RNA product abundance [4]: 0.227 |
| ACAGACGAAGGAGCCGCAAAGAAGTTATTAAGGGATGAAAAATCCCTCAAGATAAATATCTCTCACTTATTTAAA | 0.314 | – | 0.159 | – |
| CGACATGTCCCGCTTCTTTCATTAATCCATTAGCAACTGTTTTGCTATATACATTCACCTTTTAAGAGGAGGAAT | – | 0.276 | – | – |
| ACAGACGAAGGAGCCGCATAGAAGTTATTAAGGGATGAATAATCCCTCAATATAAACATCTCTCACTTATTTAAA | 1 | – | – | – |
| CGACATGTCCCGCTTCTTTCATTACTCCGTTAGCAACTGTTTTTCTATATACATTTACCTTTTAAGAGGAGGAAT | – | 0.594 | – | – |
| ACAGACGAAGGAGCCGCAAAGAAGTTATTAAGCTATGAATAATCCCTCAATATAAATATCTCTCACTTATTTAAA | 0.104 | – | 0.0874 | – |

| Sequence | cleaved RNA product abundance [1] | cleaved RNA product abundance [2] | cleaved RNA product abundance [3] | also measured |
| --- | --- | --- | --- | --- |
| CGACATGTCCCGCTTCTTTCATTAATCCATTAGCAACTGTTATGCTATATACATTTACCTTTTAAGAGGAGGAAT | – | 0.555 | – | – |
| ACAGACGAAGGAGCCGCAAAGAAGTTATTAAGGGATGAATAACTCCTCAATATAAATATCTCTCACTTATTTAAA | 0.149 | – | 0.14 | – |
| CGACATGTCCCGCTTCTTTCATTAATCCATTAGCAACTGTTTTACTATATACATATACCTTTTAAGAGGAGGAAT | – | 0.482 | – | – |
| ACAGACGAAGGAGCCGCAAAGAAGTTATTAAGAGATGAATAATCCCTCAAGATAAATATCTCTCACTTATTTAAA | 0.112 | – | – | – |
| ACAGACGAAGGAGCCGCAAAGTAGTTATTAAGCGATGAATAATCCCTCAATATAAATATCTCTCACTTATTTAAA | 0.0692 | – | 0.0839 | – |
| ACAGACGAAGGAGCCGCAAAGAAGTTATTAAGGGTTGAATAATCCCTCAATATAAATATTTCTCACTTATTTAAA | 0.512 | – | – | – |
| ACAGACGAAGGAGCCGCAAAGAAGTTATTAAGGGATGAATAATCCCACAAGATAAATATCTCTCACTTATTTAAA | 0.187 | – | 0.158 | – |
| ACAGACGAAGGAGCCGCAAATAAGTTATTAAGGGATGAATAATCCCTCAATTTAAATATCTCTCACTTATTTAAA | 0.136 | – | – | – |
| ACAGACGAAGGAGCCGCAAAGAAGTTATTAAGGTATGAATAAACCCTCAATATAAATATCTCTCACTTATTTAAA | 0.124 | – | 0.0972 | – |
| ACAGACGAAGGAGCCGCAAAGAAGTTTTTAAGGGATGAATAATCCCTCATTATAAATATCTCTCACTTATTTAAA | 0.405 | – | – | – |
| ACAGACGAAGGAGCCGCAATGAAGTCATTAAGGGATGAATAATCCCTCAATATAAATATCTCTCACTTATTTAAA | – | – | 0.189 | – |
| CGACATGTCCCGCTTCTTTCATTACTCCGTTAGCAACTGTTTTGCTATATACGTTTACCTTTTAAGAGGAGGAAT | – | 0.332 | – | – |
| ACAGACGAAGGAGCCGCAAAGAAGTTATTAAGGGATGAATAATACCTCAATATTAATATCTCTCACTTATTTAAA | 0.0425 | – | 0.0803 | cleaved RNA product abundance [4]: 0.0694 |
| CGACATGTCCCGCTTCTTTCATTAATCCGTTAGCAACTGTTTTTCTATAAACATTTACCTTTTAAGAGGAGGAAT | – | 0.459 | – | – |
| ACAGACGAAGGAGCCGCAAAGAAGTTATTTAGGGATTAATAATCCCTCAATATAAATATCTCTCACTTATTTAAA | 1.08 | – | 0.951 | – |
